The results in this text go back to patent US20180265890.

The data set concerns T1, PiggyBac transposase with c-myc NLS.
T1 sequence: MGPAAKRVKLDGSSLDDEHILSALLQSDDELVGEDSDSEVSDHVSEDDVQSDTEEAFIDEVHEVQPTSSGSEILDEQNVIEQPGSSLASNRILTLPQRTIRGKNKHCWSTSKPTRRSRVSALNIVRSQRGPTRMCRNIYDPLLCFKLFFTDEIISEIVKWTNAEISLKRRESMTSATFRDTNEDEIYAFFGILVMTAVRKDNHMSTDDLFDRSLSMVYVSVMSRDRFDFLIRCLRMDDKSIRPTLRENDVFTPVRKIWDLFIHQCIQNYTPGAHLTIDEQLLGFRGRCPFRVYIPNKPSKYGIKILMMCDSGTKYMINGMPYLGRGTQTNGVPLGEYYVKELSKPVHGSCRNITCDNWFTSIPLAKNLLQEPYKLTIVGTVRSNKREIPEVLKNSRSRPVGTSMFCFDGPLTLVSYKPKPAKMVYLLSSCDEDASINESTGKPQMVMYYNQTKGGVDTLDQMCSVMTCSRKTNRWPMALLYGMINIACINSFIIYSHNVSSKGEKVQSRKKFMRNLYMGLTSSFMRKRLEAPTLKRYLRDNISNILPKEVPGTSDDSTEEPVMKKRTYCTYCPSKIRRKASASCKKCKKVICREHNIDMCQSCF
The experiment in a line: cell_activity. The following applies: pNB328-EGFP in Jurkat cells after 3 passages; both terminal repeats present together; K562 40.54%, primary T 56.9%, mouse ES 73.12%.

The sequence “GCATGCGTCAATTTTACGCAGACTATCTTTCTAGGGTTAA (double strand) [PiggyBac 3'-terminal repeat]” returned an activity (% EGFP positive cells) of 36.4.

“TTAACCCTAGAAAGATAATCATATTGTGACGTACGTTAAAGATAATCATGCGTAAAATTGACGCATG (double strand) [PiggyBac 5'-terminal repeat]” returned an activity (% EGFP positive cells) of 36.4.
